Reference: patent publication US8580492B2, “Screening method for the identification of inhibitors of HIV Tat methylation by the lysine methyltransferase Set7/9” (priority 2007, dated 2013)
Ends that are not written are not given here.

T1: recombinant Set9 (Homo sapiens, UniProt Q8WTS6)
T1 construct: purchased Upstate
T1 sequence (Q8WTS6 whole entry, looked up): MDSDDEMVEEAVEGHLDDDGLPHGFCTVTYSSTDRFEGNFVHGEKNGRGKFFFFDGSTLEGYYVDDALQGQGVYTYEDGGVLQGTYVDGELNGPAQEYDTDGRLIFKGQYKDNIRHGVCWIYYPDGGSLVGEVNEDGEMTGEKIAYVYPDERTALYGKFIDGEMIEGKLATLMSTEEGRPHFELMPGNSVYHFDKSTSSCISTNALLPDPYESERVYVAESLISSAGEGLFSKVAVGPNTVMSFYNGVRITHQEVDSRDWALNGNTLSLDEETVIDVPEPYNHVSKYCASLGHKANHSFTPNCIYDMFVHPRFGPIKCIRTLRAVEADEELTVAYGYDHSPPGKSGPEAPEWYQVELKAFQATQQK

T2: p300 (Homo sapiens, UniProt Q09472)
T2 construct: Recombinant GST-p300 HAT was expressed in the BL21 strain of Escherichia coli; GST (N); made in house; host or cells: Escherichia coli BL21
T2 sequence (Q09472 1287-1663 limits assumed): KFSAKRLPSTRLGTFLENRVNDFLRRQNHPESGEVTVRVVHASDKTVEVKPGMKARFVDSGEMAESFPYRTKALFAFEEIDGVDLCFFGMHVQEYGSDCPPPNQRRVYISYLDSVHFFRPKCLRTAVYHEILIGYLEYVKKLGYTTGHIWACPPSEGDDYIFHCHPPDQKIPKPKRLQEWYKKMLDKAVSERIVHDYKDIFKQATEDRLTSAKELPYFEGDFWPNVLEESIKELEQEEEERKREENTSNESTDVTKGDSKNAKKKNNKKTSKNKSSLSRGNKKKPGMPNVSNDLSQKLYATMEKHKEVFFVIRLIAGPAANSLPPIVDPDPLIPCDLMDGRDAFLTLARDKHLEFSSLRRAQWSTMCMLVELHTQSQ


Columns and labels:
Assay type in all cases: biochemical
recombinant Set9 = biological target: T1, recombinant Set9; assay: In vitro methylation assay with recombinant Set9 (radiolabeled SAM autoradiography; MALDI-TOF with nonradioactive SAM); details: confirmed by MALDI-TOF
Method: (§1) Methylation assays were performed as described. (Nishioka et al. (2002) supra. In brief, 2 μg of calf thymus histones (Sigma), synthetic Tat protein or recombinant GST-IκBα were incubated with 0, 0.5, 1 or 2 μg of recombinant Set9 (specific activity 182 mU/mg, Upstate) or 0, 1 and 2 μg of G9a (specific activity 98 mU/mg, Upstate) in a buffer containing 50 mM TrisHCl pH 8.5, 5 mM MgCl2, 4 mM DTT and 1.1 μCi of ^3H-labeled S-adenosyl methionine (SAM) (Perkin Elmer) 30 min at 30° C. Reactions were stopped with sodium dodecyl sulfate (SDS) sample buffer and fractionated in a 15% SDS-polyacrylamide gel electrophoresis (SDS-PAGE) gel. After Coomassie staining and destaining, gels were treated with Amplify (Amersham Biosciences) for 30 min, dried and exposed to hyper-film (Kodak) overnight. The reactions performed with Tat peptides contained 100 μM of the different peptides and 1 μg of Set9 enzyme and were fractionated in a 10-20% Tris-Tricine gel (BioRad). For mass-spectrometry analysis, reactions were performed in the presence of 2 mM SAM (New England Biolabs) and analyzed in a MALDI-TOF instrument. In vitro acetylation assays were performed as described. Ott et al. (1999) supra.

p300 = biological target: T2, p300; assay: In vitro acetylation assay with recombinant p300 and 14C-AcCoA; details: recombinant p300, 14C-AcCoA, autoradiography
Method: Recombinant GST-p300 HAT was expressed in the BL21 strain of Escherichia coli and purified on glutathione-Sepharose beads (Amersham Pharmacia Biotech) following manufacturer's protocol.
as §1

G9a = assay: In vitro methylation assay with recombinant G9a; details: recombinant G9a 0, 1 and 2 μg, radiolabeled SAM
Method: as §1

Molecule	methylation by Set9 (recombinant Set9)	acetylation by p300 (p300)	methylation by G9a (G9a)
K50Ac: ARM peptide carrying an acetyl group at position 50 (ISYGRK(Ac)KRRQRRRP; not fully specified)	No methylation	–	–
K51me: ARM peptide monomethylated at K51 (ISYGRKK(Me)RRQRRRP)	–	acetylated	–
Tat protein: full-length synthetic Tat protein (72 amino acids) (peptide, UniProt P04608 1-72, looked up, fragment) MEPVDPRLEPWKHPGSQPKTACTNCYCKKCCFHCQVCFITKALGISYGRKKRRQRRRAHQNSQTHQASLSKQ	methylated in response to increasing amounts of Set9 enzyme	–	did not result in methylation
